Results on 30 molecules are retold here after PMC11417369, “DNA sequence and chromatin differentiate sequence-specific transcription factor binding in the human malaria parasite Plasmodium falciparum”.

To fix the notation:
T1: AP2-G D1 (Plasmodium falciparum, UniProt Q8I5I9 2123-2245)
T1 sequence: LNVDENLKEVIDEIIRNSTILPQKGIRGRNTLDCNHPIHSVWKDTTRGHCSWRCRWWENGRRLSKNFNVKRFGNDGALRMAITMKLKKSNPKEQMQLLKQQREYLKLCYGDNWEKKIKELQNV

B1: XGTACX_site1009 (dsDNA)
DNA 1: AATGTATTTATTTTTTGTACATATCGTGTGTGTATT
DNA 2: AATACACACACGATATGTACAAAAAATAAATACATT
B2: XGTACX_negctrl_site79 (dsDNA)
DNA 1: TACATGTATGTAATATGTTTTATTTTTTTCATCTCT
DNA 2: AGAGATGAAAAAAATAAAACATATTACATACATGTA
B3: XGTACX_negctrl_site404 (dsDNA)
DNA 1: ATAAAATAAATATTTTGTTATTTATTTAATCTAATA
DNA 2: TATTAGATTAAATAAATAACAAAATATTTATTTTAT
B4: XGTACX_site7391 (dsDNA)
DNA 1: TGTCAATCATATAAATGTACATTTTAAATGAGGTGT
DNA 2: ACACCTCATTTAAAATGTACATTTATATGATTGACA
B5: XGTACX_negctrl_site344 (dsDNA)
DNA 1: TACAAAAAAATAAATAATAAAAAAAAATATATATAA
DNA 2: TTATATATATTTTTTTTTATTATTTATTTTTTTGTA
B6: XGTACX_site8946 (dsDNA)
DNA 1: ATTAATCCAAATGAATGTACTTAATAATGTAATTAT
DNA 2: ATAATTACATTATTAAGTACATTCATTTGGATTAAT
B7: XGTACX_negctrl_site442 (dsDNA)
DNA 1: TATTTTATTTCAAATCTTAATAATTGTAATTCTTCA
DNA 2: TGAAGAATTACAATTATTAAGATTTGAAATAAAATA
B8: XGTACX_negctrl_site51 (dsDNA)
DNA 1: AAAAATAAAAAATATAAAAATATAAAAATATAAAAA
DNA 2: TTTTTATATTTTTATATTTTTATATTTTTTATTTTT
B9: XGTACX_site5536 (dsDNA)
DNA 1: TAACACACTAAGAAAAGTACTGATTAATATAATTTT
DNA 2: AAAATTATATTAATCAGTACTTTTCTTAGTGTGTTA
B10: XGTACX_site5075 (dsDNA)
DNA 1: AAATGAAGATTTAAATGTACGAGAGGGTATACAAAT
DNA 2: ATTTGTATACCCTCTCGTACATTTAAATCTTCATTT
B11: XGTACX_negctrl_site412 (dsDNA)
DNA 1: AAAGGAGACAGAATAAGAATAAATATTATACATATA
DNA 2: TATATGTATAATATTTATTCTTATTCTGTCTCCTTT
B12: XGTACX_site7313 (dsDNA)
DNA 1: TATATACTTTATAAATGTACATATAATGTATTATTT
DNA 2: AAATAATACATTATATGTACATTTATAAAGTATATA
B13: XGTACX_site8398 (dsDNA)
DNA 1: TAAAAAATAAAATAATGTACATATGAATTATATATT
DNA 2: AATATATAATTCATATGTACATTATTTTATTTTTTA
B14: XGTACX_site6203 (dsDNA)
DNA 1: AAAAAAAAAAAATAAAGTACTAAATAATACATTATA
DNA 2: TATAATGTATTATTTAGTACTTTATTTTTTTTTTTT
B15: XGTACX_negctrl_site140 (dsDNA)
DNA 1: ATCTTATATCGTAGAGATTTTTTTTTTTTTTCATTT
DNA 2: AAATGAAAAAAAAAAAAAATCTCTACGATATAAGAT
B16: XGTACX_negctrl_site8 (dsDNA)
DNA 1: TAAAACATGTTTTTATATATTATTATTATATTTATA
DNA 2: TATAAATATAATAATAATATATAAAAACATGTTTTA
B17: XGTACX_site611 (dsDNA)
DNA 1: TAATTTCTTATGTATTGTACAAATAATATATGATAT
DNA 2: ATATCATATATTATTTGTACAATACATAAGAAATTA
B18: XGTACX_site4343 (dsDNA)
DNA 1: TTTATATACTATCAACGTACAAAAGTAATAAAAATA
DNA 2: TATTTTTATTACTTTTGTACGTTGATAGTATATAAA
B19: XGTACX_negctrl_site511 (dsDNA)
DNA 1: ATGAAATCTTTAGAATATAGATGATGTTATTTAATT
DNA 2: AATTAAATAACATCATCTATATTCTAAAGATTTCAT
B20: XGTACX_negctrl_site127 (dsDNA)
DNA 1: TTTTTAAAAAAATTGATTCTTTTTCTTTTTTTTCTT
DNA 2: AAGAAAAAAAAGAAAAAGAATCAATTTTTTTAAAAA
B21: XGTACX_site1904 (dsDNA)
DNA 1: TTGACATATAAGATATGTACTAATACACACACATAT
DNA 2: ATATGTGTGTGTATTAGTACATATCTTATATGTCAA
B22: XGTACX_site5843 (dsDNA)
DNA 1: ATTTCAAAATATAGCTGTACAAAAAATGTAGATATA
DNA 2: TATATCTACATTTTTTGTACAGCTATATTTTGAAAT
B23: XGTACX_negctrl_site478 (dsDNA)
DNA 1: TACATATATATAATATATATATCATCATATTTTCTT
DNA 2: AAGAAAATATGATGATATATATATTATATATATGTA
B24: XGTACX_site8424 (dsDNA)
DNA 1: TATTTTGTCATAGAACGTACTTATAAATATTTTTTT
DNA 2: AAAAAAATATTTATAAGTACGTTCTATGACAAAATA
B25: XGTACX_site2716 (dsDNA)
DNA 1: AAAACTTTCCATGTTTGTACATAAAATATAATAATT
DNA 2: AATTATTATATTTTATGTACAAACATGGAAAGTTTT
B26: XGTACX_site8520 (dsDNA)
DNA 1: ATATGAAAAAGAACTTGTACTAAAGTGGCATATTAT
DNA 2: ATAATATGCCACTTTAGTACAAGTTCTTTTTCATAT
B27: XGTACX_site8441 (dsDNA)
DNA 1: AATAATATCTGAAAATGTACATTTTATTATAAACAT
DNA 2: ATGTTTATAATAAAATGTACATTTTCAGATATTATT
B28: XGTACX_negctrl_site18 (dsDNA)
DNA 1: TCATAAAAAGGAATCTTTAAGATATTTTATAAGCTC
DNA 2: GAGCTTATAAAATATCTTAAAGATTCCTTTTTATGA
B29: XGTACX_negctrl_site84 (dsDNA)
DNA 1: TTCAAAAAATAAAATAATAATATATATATAAATATA
DNA 2: TATATTTATATATATATTATTATTTTATTTTTTGAA
B30: XGTACX_site4080 (dsDNA)
DNA 1: AATACAATTGAAAATTGTACTTTGTTTTTTATAAAT
DNA 2: ATTTATAAAAAACAAAGTACAATTTTCAATTGTATT

This series has as its target T1, AP2-G D1. The series is described as follows: gcPBM; about 25 ug protein; PBS, 1% milk, 0.2 mg/ml BSA, salmon testes DNA, 0.03% Triton X-100. The following applies: tags: N-terminal GST (pGEX-4T-1), kept; label: surface-attached array probe.
For B1, the binding signal is 11.2 ln median PBM intensity, better of two orientations.
For B2 the value was 9.12 ln median PBM intensity, better of two orientations; for B3, 9.22 ln median PBM intensity, better of two orientations.
To B4 belongs 11.2 ln median PBM intensity, better of two orientations; to B5, 9.07 ln median PBM intensity, better of two orientations; to B6, 11.2 ln median PBM intensity, better of two orientations.
Take B7: the binding signal is 8.99 ln median PBM intensity, better of two orientations.
As for B8, the binding signal is 9.09 ln median PBM intensity, better of two orientations.
To B9 belongs 11.2 ln median PBM intensity, better of two orientations; to B10, 11.2 ln median PBM intensity, better of two orientations.
To B11 belongs 9.08 ln median PBM intensity, better of two orientations; to B12, 11.3 ln median PBM intensity, better of two orientations.
Regarding B13, the binding signal is 11.2 ln median PBM intensity, better of two orientations.
For B14 the value was 11.2 ln median PBM intensity, better of two orientations; for B15, 9.22 ln median PBM intensity, better of two orientations; for B16, 9.11 ln median PBM intensity, better of two orientations.
For B17, the binding signal was 11.3 ln median PBM intensity, better of two orientations.
With B18, the binding signal was 11.3 ln median PBM intensity, better of two orientations.
As for B19, the binding signal is 9.15 ln median PBM intensity, better of two orientations.
Take B20: the binding signal is 9.16 ln median PBM intensity, better of two orientations.
For B21 the value was 11.2 ln median PBM intensity, better of two orientations; for B22, 11.2 ln median PBM intensity, better of two orientations; for B23, 9.22 ln median PBM intensity, better of two orientations.
In the case of B24, the binding signal was 11.3 ln median PBM intensity, better of two orientations.
To B25 belongs 11.3 ln median PBM intensity, better of two orientations.
To B26 belongs 11.3 ln median PBM intensity, better of two orientations.
To B27 belongs 11.2 ln median PBM intensity, better of two orientations; to B28, 9.17 ln median PBM intensity, better of two orientations.
For B29, the binding signal was 9.17 ln median PBM intensity, better of two orientations.
For B30 the value was 11.3 ln median PBM intensity, better of two orientations.
